Two molecules from PMC6648666 can be followed below.

Series [1] deals with T1, HqRRM1,2 BTFA-labeled (human, UniProt P31943 10-194).
T1 sequence: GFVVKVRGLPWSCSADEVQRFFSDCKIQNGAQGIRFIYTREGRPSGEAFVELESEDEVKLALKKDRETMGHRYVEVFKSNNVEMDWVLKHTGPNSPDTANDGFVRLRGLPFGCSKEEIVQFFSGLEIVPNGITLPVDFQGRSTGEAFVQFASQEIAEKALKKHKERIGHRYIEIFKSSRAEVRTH
Description: 19F NMR PRE.

In series [2] the target is T2, HqRRM2 (hnRNP H qRRM2) (human, UniProt P31943 94-194).
T2 sequence: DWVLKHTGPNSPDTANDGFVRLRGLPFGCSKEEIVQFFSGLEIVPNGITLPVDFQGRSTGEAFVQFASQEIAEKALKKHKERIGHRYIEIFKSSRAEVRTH
Put plainly: ITC.

The target in series [3] is T3, HqRRM1,2 (hnRNP H tandem qRRMs) (human, UniProt P31943 10-194).
T3 sequence: T1 sequence
Description: ITC.

The target in series [4] is T4, HqRRM1 (hnRNP H qRRM1) (human, UniProt P31943 10-111).
T4 sequence: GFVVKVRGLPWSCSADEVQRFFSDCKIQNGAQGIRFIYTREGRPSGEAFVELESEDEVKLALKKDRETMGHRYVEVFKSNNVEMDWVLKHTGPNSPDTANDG
Description: ITC.

B1: AGGGA*U spin-labeled (ssRNA)
RNA: AGGGAU
modifications: phosphorothioate between A5 and U6
Regarding B1, the binding result in series [1] was “binds”.

B2: AGGGU (ssRNA)
RNA: AGGGU
For the molecule B2, the values for the equilibrium dissociation constant (Kd) in series [2], in series [3] and in series [4] were 2200 ± 800 nM, 800 ± 100 nM and 3200 ± 100 nM, respectively.
